For this data set, the system named is T1, SC_RAG single-chain meganuclease (I-CreI derived) (artificial sequence).
T1 sequence: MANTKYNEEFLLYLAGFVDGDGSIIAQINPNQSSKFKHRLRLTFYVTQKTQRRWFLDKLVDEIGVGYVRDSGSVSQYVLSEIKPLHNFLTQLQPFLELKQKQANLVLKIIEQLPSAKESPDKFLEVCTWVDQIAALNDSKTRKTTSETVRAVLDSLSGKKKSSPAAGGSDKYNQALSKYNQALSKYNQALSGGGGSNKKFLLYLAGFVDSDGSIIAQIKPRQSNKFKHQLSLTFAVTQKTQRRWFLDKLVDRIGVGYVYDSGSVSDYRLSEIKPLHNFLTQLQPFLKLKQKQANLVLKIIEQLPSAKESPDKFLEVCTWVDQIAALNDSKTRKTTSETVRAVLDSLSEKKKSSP
In words: cell_activity. The conditions noted are these: endogenous locus in 293H, siRNA control AS, deep sequencing, +/-0.13.

The substance “endogenous human RAG1 locus target of SC_RAG” yielded an activity (% NHEJ mutagenesis) of 0.66.

The values above are taken from patent US20120244131.
